According to article PMC10966536:

System: NmPAL (PAS-ANTAR-LOV photoreceptor) (Nakamurella multipartita)
Assay: fluorescence anisotropy
Details: FA: 4 nM RNA, 12 mM HEPES/HCl pH 7.7, 135 mM KCl, 10 mM NaCl, 1 mM MgCl2, 10% w/v glycerol, 100 ug/mL BSA, dark, or after 60 s blue light (465 nm), temperature …

Row | Sequence | Kd (blue light, text says 83-fold reduced) [nM] | Kd (blue light, two-site fit, high-affinity site (second transition micromolar)) [nM] | Kd (darkness, text elsewhere calls this micromolar binding) [nM]
1 | ACCUUCGGUUCAGCUGCGAGCCG [58.M21, TAMRA] | 250 | – | –
2 | ACCUUCGGUUCAGCAGCGAGCCG [58 (motif 3), TAMRA] | – | 3.5 | > 3000
